What was measured:
[1] = target: T1, Human EphA2-Fc fusion protein (human, UniProt P29317 24-537); test: method not stated in this paragraph (framework shuffling)
T1 construct: extracellular domain; Expressed in HEK 293 cells; Biotinylated in the capture ELISAs; also called soluble EphA2 Fc fusion protein; not shown: Fc portion of a human IgG1

[2] = target: T1, Human EphA2-Fc fusion protein; test: SPR (Biacore 3000), soluble IgG on immobilized EphA2-Fc
human EphA2 [3] = target: T2, human EphA2 (human, UniProt P29317 24-976); test: cell-based or functional assay
human EphA2 [4] = target: T2, human EphA2; test: cell-based or functional assay; remark: listed apart in the source
human EphA2 [5] = target: T2, human EphA2; test: cell-based or functional assay; remark: listed apart in the source
[6] = target: T1, Human EphA2-Fc fusion protein; test: SPR, immobilized EphA2-Fc surface; (MT)
From the text: (§1) The formation and dissociation of BiTE/EphA2 complexes was monitored by surface plasmon resonance using a Biacore 3000 system. For this purpose, EphA2 Fc fusion protein was immobilized on a sensor chip with a CM5 carboxymethylated dextran matrix. Optimal immobilization conditions were identified through pH scouting (sodium acetate pH 4.0 to pH 5.5; disodium tetraborate pH 8.5). The optimal pH value was pH 4.0. After immobilization of 1000 RU to flow cell 2, 5,000 RU to flow cell 3 and 400 RU to flow cell 4, excess reactive groups were deactivated by ethanolamine. The affinity of the anti-EphA2 BiTE to immobilized EphA2 was determined by injecting different concentrations of the analyte deimmunized anti-CD3×EA2 VHVL diluted in HBS-EP buffer. To regenerate the surface, REGEN buffer (50 mM NaOH; 20 mM MES; 1 mM NaCl pH 6.4) was used.

human EphA2 [7] = target: T2, human EphA2; test: cell-based or functional assay; remark: listed apart in the source
human EphA2 [8] = target: T2, human EphA2; test: cell-based or functional assay; remark: listed apart in the source
soluble CD3εγ = target: T3, soluble CD3εγ (human, UniProt P07766 23-118; P09693 23-103); test: SPR, immobilized soluble CD3εγ surface; estimate, biphasic association
T3 construct: Amine-coupled to a CM5 chip

[9] = target: T1, Human EphA2-Fc fusion protein; test: SPR (Biacore 3000), EphA2 Fc fusion protein immobilized on CM5, BiTE as analyte
From the text: as §1

human EphA2 [10] = target: T2, human EphA2; test: cell-based or functional assay; remark: listed apart in the source
[11] = target: T1, Human EphA2-Fc fusion protein; test: SPR, immobilized EphA2-Fc surface; (MedI)
[12] = target: T1, Human EphA2-Fc fusion protein; test: method and format of the clone not stated in this paragraph (framework shuffling)
cynomolgus EphA2 = target: T4, cynomolgus EphA2 (cynomolgus, UniProt Q1KL86 24-976); test: flow cytometry on cynomolgus EphA2 transfected CHO cells, antibody 10 µg/ml, AlexaFluor 488 anti-mouse or anti-human IgG (H+L)
T4 construct: whole, on cells; also called cynomolgus EphA2 expressed on transfected CHO cells
T4 sequence (Q1KL86 24-976): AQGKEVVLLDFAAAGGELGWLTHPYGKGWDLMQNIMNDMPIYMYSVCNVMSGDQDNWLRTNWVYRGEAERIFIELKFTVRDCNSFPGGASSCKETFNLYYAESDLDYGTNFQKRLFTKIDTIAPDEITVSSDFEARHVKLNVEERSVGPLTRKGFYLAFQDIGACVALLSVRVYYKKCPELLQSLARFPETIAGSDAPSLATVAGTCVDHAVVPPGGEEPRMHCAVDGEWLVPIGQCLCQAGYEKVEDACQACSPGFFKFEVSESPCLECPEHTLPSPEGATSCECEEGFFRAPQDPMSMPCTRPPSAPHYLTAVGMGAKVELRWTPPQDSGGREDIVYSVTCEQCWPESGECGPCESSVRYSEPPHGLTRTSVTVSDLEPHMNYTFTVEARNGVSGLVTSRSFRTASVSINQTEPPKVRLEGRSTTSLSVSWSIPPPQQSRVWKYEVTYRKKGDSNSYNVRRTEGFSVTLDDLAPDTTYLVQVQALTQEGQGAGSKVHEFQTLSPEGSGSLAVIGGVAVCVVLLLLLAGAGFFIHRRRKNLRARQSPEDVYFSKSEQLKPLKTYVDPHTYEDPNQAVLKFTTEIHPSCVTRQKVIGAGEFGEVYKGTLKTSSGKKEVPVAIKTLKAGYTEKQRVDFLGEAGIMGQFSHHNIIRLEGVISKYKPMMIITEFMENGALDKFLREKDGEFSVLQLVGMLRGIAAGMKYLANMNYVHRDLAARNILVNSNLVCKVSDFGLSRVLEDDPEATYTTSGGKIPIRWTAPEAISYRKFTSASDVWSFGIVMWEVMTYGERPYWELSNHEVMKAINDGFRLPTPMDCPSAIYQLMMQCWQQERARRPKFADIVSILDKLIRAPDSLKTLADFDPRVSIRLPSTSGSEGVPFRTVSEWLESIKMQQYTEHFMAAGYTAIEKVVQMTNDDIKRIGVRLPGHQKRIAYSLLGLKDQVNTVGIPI
Description: Subconfluent monolayers of SW480 colon carcinoma or cynomolgus EphA2 transfected CHO cells were quickly trypsinized, washed, counted, plated into 96-well round bottom plates, and stained with 10 μg/ml of a negative control antibody (R347), the anti-human EphA2 murine antibody, EA2 (Coffman 2003), or humanized antibodies, 3F2 and 4H5. Cells were resuspended in AlexaFluor 488 anti-mouse or anti-human IgG H+L (Invitrogen) and then analyzed by flow cytometry using a FACSCalibur (Becton Dickinson).

B1: Humanized 2G6 (antibody, human IgG1, V domains shown)
VH: EVQLVESGGGVVRPGGSLRLSCAASGFTVSDYSMNWVRQAPGKGLEWIGFIRNKANDYTTEYSASVKGRFTISRDDSKNTLYLQMNSLKTEDTAVYYCTTYPRYHAMDSWGQGTMVTVSS
VL: AIQLTQSPSSLSASVGDRVTITCRASQSISNNLHWYLQKPGQSPQLLIYYVFQSISGVPSRFSGSGSGTDFTLTISSLQPEDFATYYCQQSNSWPLTFGGGTKLEIK
notes: Framework-shuffled humanized B233; human IgG1 with human kappa chain in the Biacore analysis
[1]
  fold loss of affinity compared with chimaeric mAb B233: ~10 fold
[2]
  Kd: 3 nM
  koff: 0.00019 s⁻¹
  kon: 64000 M⁻¹ s⁻¹

B2: EphA2-BiTE deimmunized anti-CD3 (VH/VL) × EA2 (VH/VL) (bispecific antibody)
chain: DVQLVQSGAEVKKPGASVKVSCKASGYTFTRYTMHWVRQAPGQGLEWIGYINPSRGYTNYADSVKGRFTITTDKSTSTAYMELSSLRSEDTATYYCARYYDDHYCLDYWGQGTTVTVSSGEGTSTGSGGSGGSGGADDIVLTQSPATLSLSPGERATLSCRASQSVSYMNWYQQKPGKAPKRWIYDTSKVASGVPARFSGSGSGTDYSLTINSLEAEDAATYYCQQWSSNPLTFGGGTKVEIKSGGGGSDVKLVESGGGLVKPGGSLKLSCAASGFTFSSYTMSWVRQTPEKRLEWVATISSGGTYTYYPDSVKGRFTISRDNAKNTLYLQMSSLKSEDTAMYYCTREAIFTYWGQGTLVTVSSGGGGSGGGGSGGGGSDIKMTQSPSSMYASLGERVTITCKASQDINNYLSWFQQKPGKSPKTLIYRANRLVDGVPSRFSGSGSGQDYSLTISSLEYEDMGIYYCLKYDEFPYTFGGGTKLEIKHHHHHH
notes: C-terminal His tag; Purified monomer from CHO cells; also called deimmunized anti-CD3×EA2 (VH/VL); deimmunized anti-CD3-EA2(VH/VL)
Human EphA2 [3]
  EC50 of redirected lysis, A549, NK cell-depleted PBMC of Donor #1: 20.9 ng/mL
  EC50 of redirected lysis, A549, NK cell-depleted PBMC of Donor #2: 22.6 ng/mL
  EC50 of redirected lysis, A549, NK cell-depleted PBMC of Donor #3: 24.8 ng/mL
  EC50 of redirected lysis, A549, NK cell-depleted PBMC of Donor #4: 28.5 ng/mL
  EC50 of redirected lysis, A549, NK cell-depleted PBMC of Donor #6: 32.8 ng/mL
  EC50 of redirected lysis, A549, NK cell-depleted PBMC of Donor #7: 6.6 ng/mL
  EC50 of redirected lysis, MDA-MB 231, NK cell-depleted PBMC of Donor #1: 15.4 ng/mL
  EC50 of redirected lysis, MDA-MB 231, NK cell-depleted PBMC of Donor #2: 5.8 ng/mL
  EC50 of redirected lysis, MDA-MB 231, NK cell-depleted PBMC of Donor #3: 8.6 ng/mL
  EC50 of redirected lysis, MDA-MB 231, NK cell-depleted PBMC of Donor #4: 23.9 ng/mL
  EC50 of redirected lysis, MDA-MB 231, NK cell-depleted PBMC of Donor #5: 1.9 ng/mL
  EC50 of redirected lysis, MDA-MB 231, NK cell-depleted PBMC of Donor #6: 7.6 ng/mL
  EC50 of redirected lysis, MDA-MB 231, NK cell-depleted PBMC of Donor #7: 3.2 ng/mL
Human EphA2 [4]
  EC50 of tumor cell killing, ACHN cells: 3 ng/mL
  EC50 of tumor cell killing, Caki 2 cells: 30 ng/mL
  EC50 of tumor cell killing, DU145 cells: 0.8 ng/mL
  EC50 of tumor cell killing, PC3 cells: 6 ng/mL
  EC50 of tumor cell killing, SW480 cells: 6 ng/mL
  median EC50 of tumor cell killing, SW480 targets, 49 donors: 24 ng/mL
Human EphA2 [5]
  EC50 of cytotoxic activity, 51Cr release, MDA-MB231 target cells, NK cell-depleted PBMC, E:T 10:1, 18 h; BiTE diluted directly before assay in medium (control): 1.9 ng/mL
  EC50 of cytotoxic activity, 51Cr release, MDA-MB231 target cells, NK cell-depleted PBMC, E:T 10:1, 18 h; BiTE diluted directly before assay in plasma (control): 2 ng/mL
  EC50 of cytotoxic activity, 51Cr release, MDA-MB231 target cells, NK cell-depleted PBMC, E:T 10:1, 18 h; BiTE kept 24 h in plasma at 4° C. before the assay: 2.2 ng/mL
  EC50 of cytotoxic activity, 51Cr release, MDA-MB231 target cells, NK cell-depleted PBMC, E:T 10:1, 18 h; BiTE kept 24 h in plasma at 37° C. before the assay: 3.1 ng/mL
[6]
  Kd: 45 nM
Human EphA2 [7]
  EC50 of redirected lysis, A549, PBMC effectors, batch 040507PMa02: 32.8 ng/mL
  EC50 of redirected lysis, A549, PBMC effectors, batch 040907USy02: 10.2 ng/mL
  EC50 of redirected lysis, A549, stimulated CD8 T-cells, batch 040507PMa02: 3.3 ng/mL
  EC50 of redirected lysis, A549, stimulated CD8 T-cells, batch 040907USy02: 1.6 ng/mL
  EC50 of redirected lysis, MDA MB 231, PBMC effectors, batch 040507PMa02: 7.6 ng/mL
  EC50 of redirected lysis, MDA MB 231, PBMC effectors, batch 040907USy02: 3.2 ng/mL
  EC50 of redirected lysis, MDA MB 231, stimulated CD8 T-cells, batch 040507PMa02: 0.7 ng/mL
  EC50 of redirected lysis, MDA MB 231, stimulated CD8 T-cells, batch 040907USy02: 0.5 ng/mL
Human EphA2 [8]
  EC50 of redirected lysis, 51Cr release, A549: 123 ng/mL
  EC50 of redirected lysis, 51Cr release, A549, second experiment: 24.8 ng/mL
  EC50 of redirected lysis, 51Cr release, MDA MB231: 5.8 ng/mL
  EC50 of redirected lysis, 51Cr release, MDA MB231, second experiment: 8.6 ng/mL
Soluble CD3εγ
  Kd: 400 to 500 nM
[9]
  Kd: 44.6 nM
  koff: 0.0426 s⁻¹
  kon: 956000 M⁻¹ s⁻¹
Human EphA2 [10]
  EC 50 of lysis, 51Cr release, B16 F10 EphA2 transfected cells, stimulated human CD8 T-cells, E:T 10:1, 18 h: 21.7 ng/mL
[11]
  Kd: 113 nM

B3: humanized anti-human EphA2 mAb 4H5 (antibody, V domains shown)
VH: QVQLLESGGGLVQPGGSLRLSCAASGFTFSSYTMSWVRQAPGQALEWMGTISSGGTYTYYPDSVKGRFTISRDNAKNSLYLQMNSLRAEDTAVYYCAREAIFTYWGRGTLVTVSS
VL: DIQLTQSPSSLSASVGDRVTITCKASQDINNYLSWYQQKPGQAPRLLIYRANRLVDGVPDRFSGSGYGTDFTLTINNIESEDAAYYFCLKYDVFPYTFGQGTKVEIK
notes: Humanized from EA2 by framework shuffling; detected with anti-human IgG; also called humanized clone 4H5
[12]
  fold increase of affinity compared with chimaeric Fab EA2: ~20 fold
Cynomolgus EphA2
  binding result: binds

Reference: patent publication US20080044413A1 (published 2008)
